{
  "source": "patent US20160053258",
  "proteins": {"B1": {"name": "recombinant full-length SET7/9 expressed in bacteria (protein)", "chain": "MDSDDEMVEEAVEGHLDDDGLPHGFCTVTYSSTDRFEGNFVHGEKNGRGKFFFFDGSTLEGYYVDDALQGQGVYTYEDGGVLQGTYVDGELNGPAQEYDTDGRLIFKGQYKDNIRHGVCWIYYPDGGSLVGEVNEDGEMTGEKIAYVYPDERTALYGKFIDGEMIEGKLATLMSTEEGRPHFELMPGNSVYHFDKSTSSCISTNALLPDPYESERVYVAESLISSAGEGLFSKVAVGPNTVMSFYNGVRITHQEVDSRDWALNGNTLSLDEETVIDVPEPYNHVSKYCASLGHKANHSFTPNCIYDMFVHPRFGPIKCIRTLRAVEADEELTVAYGYDHSPPGKSGPEAPEWYQVELKAFQATQQK"}},
  "key": {"[1]": {"biological_target": "T1, 6×HIS-LIN28A-K135R, Q9H9Z2", "T1 chain": "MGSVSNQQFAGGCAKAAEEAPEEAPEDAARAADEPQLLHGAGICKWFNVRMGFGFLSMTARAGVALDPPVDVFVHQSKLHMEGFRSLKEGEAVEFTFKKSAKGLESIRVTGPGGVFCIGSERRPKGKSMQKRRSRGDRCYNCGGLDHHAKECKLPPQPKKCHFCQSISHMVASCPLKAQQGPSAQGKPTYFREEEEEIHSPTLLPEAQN"}, "[2]": {"biological_target": "T2, 6×HIS-LIN28A (125-156), Q9H9Z2", "T2 chain": "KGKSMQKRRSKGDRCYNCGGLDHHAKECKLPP"}, "[3]": {"biological_target": "T3, 6×HIS-LIN28A (1-124), Q9H9Z2", "T3 chain": "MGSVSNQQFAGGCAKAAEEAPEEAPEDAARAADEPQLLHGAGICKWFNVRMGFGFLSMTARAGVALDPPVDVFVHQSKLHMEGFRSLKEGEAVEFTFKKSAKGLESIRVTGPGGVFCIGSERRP"}, "[4]": {"biological_target": "T4, 6×HIS-labeled human LIN28A (full-length), Q9H9Z2", "T4 chain": "T1 chain with R135K"}, "[5]": {"biological_target": "T5, 6×HIS-LIN28A (125-209), Q9H9Z2", "T5 chain": "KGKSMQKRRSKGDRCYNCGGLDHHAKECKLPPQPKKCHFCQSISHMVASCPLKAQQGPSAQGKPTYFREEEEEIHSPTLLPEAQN"}, "[6]": {"biological_target": "T6, 6×HIS-LIN28A (157-209), Q9H9Z2", "T6 chain": "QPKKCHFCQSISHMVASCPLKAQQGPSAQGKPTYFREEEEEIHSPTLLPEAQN"}, "[7]": {"biological_target": "T7, full-length 6×HIS-LIN28B, Q6ZN17", "T7 chain": "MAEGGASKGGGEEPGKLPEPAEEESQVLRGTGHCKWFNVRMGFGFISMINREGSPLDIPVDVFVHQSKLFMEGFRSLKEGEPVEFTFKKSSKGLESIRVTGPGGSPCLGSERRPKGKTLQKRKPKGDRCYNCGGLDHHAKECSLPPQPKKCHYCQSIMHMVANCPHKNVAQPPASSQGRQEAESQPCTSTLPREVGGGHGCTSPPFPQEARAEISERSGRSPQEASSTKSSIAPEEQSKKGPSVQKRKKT"}},
  "note": "Residue numbers refer to the chain shown, from its start.",
  "data": [
    {"protein": "B1", "values": [
      {"measurement": "methylation (in vitro methyl transferase assay)", "setting": "[1]", "value": "a methylation reaction by SET7/9 was completely removed in K135 mutant"},
      {"measurement": "methylation (in vitro methyl transferase assay)", "setting": "[2]", "value": "only LIN28A (125-209) and (125-156) having lysine 135 among 4 fragments were methylated by SET7/9"},
      {"measurement": "methylation (in vitro methyl transferase assay)", "setting": "[3]", "value": "LIN28A (1-124) and (157-209) without lysine 135 were not methylated"},
      {"measurement": "enzyme activity (in vitro methyltransferase assay with [3H] SAM)", "setting": "[4]", "value": "all HMTases except for SET7/9 did not show enzyme activity with respect to LIN28A"},
      {"measurement": "methylation (in vitro methyltransferase assay with [3H] SAM)", "setting": "[4]", "value": "LIN28A was methylated by SET7/9 in vitro"},
      {"measurement": "methylation (in vitro methyl transferase assay)", "setting": "[5]", "value": "only LIN28A (125-209) and (125-156) having lysine 135 among 4 fragments were methylated by SET7/9"},
      {"measurement": "methylation (in vitro methyl transferase assay)", "setting": "[6]", "value": "LIN28A (1-124) and (157-209) without lysine 135 were not methylated"},
      {"measurement": "methylation (in vitro methyl transferase analysis)", "setting": "[7]", "value": "LIN28B was not methylated by SET7/9"}
    ]}
  ]
}
